Measurements from patent publication US20220363757A1 (SYMPHOGEN A S, published 2022).

T1: human LAG-3 domain 1-2 Fc fusion, point mutation #4 S45A (human, UniProt P18627 23-266)
T1 construct: not shown: human IgG1 Fc, AA P101-K330
T1 sequence: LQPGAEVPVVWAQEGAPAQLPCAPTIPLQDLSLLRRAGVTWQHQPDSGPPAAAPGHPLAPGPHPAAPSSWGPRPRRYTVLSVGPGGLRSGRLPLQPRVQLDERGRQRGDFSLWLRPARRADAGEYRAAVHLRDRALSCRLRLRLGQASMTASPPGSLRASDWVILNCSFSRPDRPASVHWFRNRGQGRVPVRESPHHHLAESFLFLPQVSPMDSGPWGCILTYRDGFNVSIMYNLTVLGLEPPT

T2: human LAG-3 domain 1-2 Fc fusion, point mutation #32 H85A (human, UniProt P18627 23-266)
T2 construct: not shown: human IgG1 Fc, AA P101-K330
T2 sequence: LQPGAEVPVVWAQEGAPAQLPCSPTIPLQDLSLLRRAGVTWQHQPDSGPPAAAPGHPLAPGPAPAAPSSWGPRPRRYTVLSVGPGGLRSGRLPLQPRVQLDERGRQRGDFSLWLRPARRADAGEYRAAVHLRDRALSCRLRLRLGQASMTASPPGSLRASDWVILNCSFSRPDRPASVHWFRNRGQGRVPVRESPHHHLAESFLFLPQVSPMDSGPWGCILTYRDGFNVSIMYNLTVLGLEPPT

T3: human LAG-3 domain 1-2 Fc fusion, point mutation #66 G126A (human, UniProt P18627 23-266)
T3 construct: not shown: human IgG1 Fc, AA P101-K330
T3 sequence: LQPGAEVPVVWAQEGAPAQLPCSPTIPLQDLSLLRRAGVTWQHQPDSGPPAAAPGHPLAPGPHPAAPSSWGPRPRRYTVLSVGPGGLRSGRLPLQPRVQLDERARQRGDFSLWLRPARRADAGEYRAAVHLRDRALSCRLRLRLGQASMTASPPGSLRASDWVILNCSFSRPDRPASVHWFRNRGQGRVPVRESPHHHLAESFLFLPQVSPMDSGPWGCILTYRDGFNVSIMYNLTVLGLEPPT

T4: human LAG-3 domain 1-2 Fc fusion, point mutation #75 R141A (human, UniProt P18627 23-266)
T4 construct: not shown: human IgG1 Fc, AA P101-K330
T4 sequence: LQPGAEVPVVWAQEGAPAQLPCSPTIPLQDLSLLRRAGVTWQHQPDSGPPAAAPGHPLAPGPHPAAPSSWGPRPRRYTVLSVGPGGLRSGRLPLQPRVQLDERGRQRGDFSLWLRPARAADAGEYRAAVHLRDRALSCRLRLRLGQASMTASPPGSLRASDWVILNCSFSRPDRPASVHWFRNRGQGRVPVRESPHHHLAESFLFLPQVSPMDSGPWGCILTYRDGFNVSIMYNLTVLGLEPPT

T5: human LAG-3 domain 1-2 Fc fusion, point mutation #14 T62A (human, UniProt P18627 23-266)
T5 construct: not shown: human IgG1 Fc, AA P101-K330
T5 sequence: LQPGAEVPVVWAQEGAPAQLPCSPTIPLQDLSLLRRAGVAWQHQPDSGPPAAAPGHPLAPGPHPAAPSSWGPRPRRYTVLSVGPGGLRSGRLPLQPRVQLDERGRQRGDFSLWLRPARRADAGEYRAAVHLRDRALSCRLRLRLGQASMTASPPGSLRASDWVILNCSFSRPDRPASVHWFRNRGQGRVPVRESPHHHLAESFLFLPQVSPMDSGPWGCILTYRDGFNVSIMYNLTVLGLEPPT

T6: human LAG-3 domain 1-2 Fc fusion, point mutation #42 R95A (human, UniProt P18627 23-266)
T6 construct: not shown: human IgG1 Fc, AA P101-K330
T6 sequence: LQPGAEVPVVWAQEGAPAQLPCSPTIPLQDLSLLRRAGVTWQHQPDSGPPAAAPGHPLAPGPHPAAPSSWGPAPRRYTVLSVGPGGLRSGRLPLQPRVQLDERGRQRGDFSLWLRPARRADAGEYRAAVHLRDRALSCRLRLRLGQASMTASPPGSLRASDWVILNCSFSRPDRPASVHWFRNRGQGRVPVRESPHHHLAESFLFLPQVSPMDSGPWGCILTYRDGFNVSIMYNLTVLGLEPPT

T7: human LAG-3 domain 1-2 Fc fusion, point mutation #63 D123A (human, UniProt P18627 23-266)
T7 construct: not shown: human IgG1 Fc, AA P101-K330
T7 sequence: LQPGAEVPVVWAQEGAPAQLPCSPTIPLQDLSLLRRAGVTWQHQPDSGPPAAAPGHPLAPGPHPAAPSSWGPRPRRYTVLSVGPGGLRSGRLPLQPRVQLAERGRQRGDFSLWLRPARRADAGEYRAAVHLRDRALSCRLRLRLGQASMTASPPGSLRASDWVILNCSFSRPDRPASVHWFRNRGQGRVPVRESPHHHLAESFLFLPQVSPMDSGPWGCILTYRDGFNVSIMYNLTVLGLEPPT

T8: human LAG-3 domain 1-2 Fc fusion, point mutation #15 Q64A (human, UniProt P18627 23-266)
T8 construct: not shown: human IgG1 Fc, AA P101-K330
T8 sequence: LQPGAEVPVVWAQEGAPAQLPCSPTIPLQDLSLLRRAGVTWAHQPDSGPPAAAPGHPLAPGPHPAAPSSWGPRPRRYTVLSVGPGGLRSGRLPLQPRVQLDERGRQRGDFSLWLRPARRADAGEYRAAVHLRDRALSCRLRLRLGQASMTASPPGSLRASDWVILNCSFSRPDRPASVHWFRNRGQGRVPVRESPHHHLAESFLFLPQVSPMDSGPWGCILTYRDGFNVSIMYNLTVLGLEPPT

T9: human LAG-3 domain 1-2 Fc fusion, point mutation #77 R148A (human, UniProt P18627 23-266)
T9 construct: not shown: human IgG1 Fc, AA P101-K330
T9 sequence: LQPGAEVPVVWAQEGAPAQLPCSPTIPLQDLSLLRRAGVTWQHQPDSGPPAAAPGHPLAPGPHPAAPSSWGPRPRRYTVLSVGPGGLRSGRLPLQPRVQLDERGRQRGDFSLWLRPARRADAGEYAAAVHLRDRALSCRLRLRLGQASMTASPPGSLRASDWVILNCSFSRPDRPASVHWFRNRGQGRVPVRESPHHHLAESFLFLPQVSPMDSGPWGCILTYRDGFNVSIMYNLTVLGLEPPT


Columns and labels:
Assay in all cases: SPR, Fab over captured mutant LAG-3-Fc;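 further: fc fusion variants captured on anti-human IgG Fc sensor, Fab injected with association then dissociation phases, KD obtained from Langmuir one-to-one fit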
[1] = molecular target: T1, human LAG-3 domain 1-2 Fc fusion, point …
[2] = molecular target: T2, human LAG-3 domain 1-2 Fc fusion, point …
[3] = molecular target: T3, human LAG-3 domain 1-2 Fc fusion, point …
[4] = molecular target: T4, human LAG-3 domain 1-2 Fc fusion, point …
[5] = molecular target: T5, human LAG-3 domain 1-2 Fc fusion, point …
[6] = molecular target: T6, human LAG-3 domain 1-2 Fc fusion, point …
[7] = molecular target: T7, human LAG-3 domain 1-2 Fc fusion, point …
[8] = molecular target: T8, human LAG-3 domain 1-2 Fc fusion, point …
[9] = molecular target: T9, human LAG-3 domain 1-2 Fc fusion, point …

| KD mutant/KD wild type [1] | KD mutant/KD wild type [2] | KD mutant/KD wild type [3] | KD mutant/KD wild type [4] | binding result [5] | KD mutant/KD wild type [6] | KD mutant/KD wild type [7] | binding result [8] | binding result [9] | KD mutant/KD wild type [5] | KD mutant/KD wild type [8] | KD mutant/KD wild type [9] | Binder |
| --- | --- | --- | --- | --- | --- | --- | --- | --- | --- | --- | --- | --- |
| 0.6 fold | 0.7 fold | 0.9 fold | 0.9 fold | no binding (tested: 300 nM) | 0.6 fold | 0.5 fold | no binding (tested: 300 nM) | no binding (tested: 300 nM) | – | – | – | Fab fragment of antibody 15572 (Fab, V domains shown, not shown: a dimerising Fc or GST, monomeric Fab made by GingisKHAN digestion of the IgG1) VH: QLQLQESGPGLVKPSETLSLTCTVSGDSISSSSYYWGWIRQPPGKGLEWIGSIFYSGNTYYNPSLKSRVTISVDTSKNQFSLKLSSVTAADTAVYYCAREDDFLTDYYGAFDIWGQGTMVTVSS VL: not shown |
| 1.7 fold | 7.2 fold | 0.9 fold | 0.7 fold | – | 3.7 fold | 1 fold | – | – | 4.2 fold | 2.9 fold | 2.9 fold | Fab fragment of antibody 15532 (Fab, V domains shown, not shown: a dimerising Fc or GST, monomeric Fab made by GingisKHAN digestion of the IgG1) VH: QVQLQQWGAGLLRPSETLSLTCAVYGESFSGYYWNWIRQPPGKGLEWIGEINHSGSTNYNPSLKSRVTISVDTSKTQFSLKLSSVTAADTAVYYCARGWDLLDWNDYWNEYWGQGTLVTVSS VL: EIVLTQSPATLSLSPGERATLSCRASQSVSSYLAWYQQKPGQAPRLLIYDASNRATGIPARFSGSGSGTDFTLTISSLEPEDFAVYYCQQRSNWPLTFGGGTKVEIKR |

Continued, binder first:

| Binder | KD mutant/KD wild type [1] | KD mutant/KD wild type [2] | KD mutant/KD wild type [3] | KD mutant/KD wild type [4] | binding result [5] | KD mutant/KD wild type [6] | KD mutant/KD wild type [7] | binding result [8] | binding result [9] | KD mutant/KD wild type [5] | KD mutant/KD wild type [8] | KD mutant/KD wild type [9] |
| --- | --- | --- | --- | --- | --- | --- | --- | --- | --- | --- | --- | --- |
| Fab fragment of antibody 15011 (Fab, V domains shown, not shown: a dimerising Fc or GST, monomeric Fab made by GingisKHAN digestion of the IgG1) VH: EVQLLESGGGLVQPGGSLRLSCAASGFDFRSYAMMWVRQAPGKGLEWVGGINGEVGGSNTYYAPAVKGRATISRDNSKNTLYLQMNSLRAEDTAVYYCVKGAGACGICNDDIDAWGQGTLVTVSS VL: SYELTQDPAVSVALGQTVRITCSGAGSYAGSYYYGWHQQKPGQAPVTVIYDNDKRPSNIPDRFSGSSSGNTASLTITGAQAEDEADYYCGSTNDNDDGGLFGSGTKVTVLG | 0.7 fold | 0.9 fold | 0.9 fold | 1.1 fold | – | 0.7 fold | 0.8 fold | – | – | 0.6 fold | 0.6 fold | 0.7 fold |
| Fab fragment of antibody 15431 (Fab, V domains shown, not shown: a dimerising Fc or GST, monomeric Fab made by GingisKHAN digestion of the IgG1) VH: QVQLQQSGPGLVKPSQTLSLTCAISGDSVSSNSAAWNWIRQSPSRGLEWLGRTYYRSKWYNDYAVSVKSRITINPDTSKNQFSLQLNSVTPEDTAVYYCARDDDWNDFDYWGQGTLVTVSS VL: EIVLTQSPATLSLSPGERATLSCRASQSVSSYLAWYQQKPGQAPRLLIYDASNRATGIPARFSGSGSGTDFTLTISSLEPEDFAVYYCQQRSNWPLTFGGGTKVEIKR | 0.4 fold | 0.8 fold | 0.9 fold | 1 fold | no binding (tested: 300 nM) | 1.9 fold | 0.9 fold | no binding (tested: 300 nM) | no binding (tested: 300 nM) | – | – | – |
